# From publication PMC6242971 (2018)
# Where no end group is shown, it is not given here. The star is where a group is joined. FITC = O=C1OC2(c3ccc(O)cc3Oc3cc(O)ccc32)c2ccc(NC(=S)*)cc21
# Legend:
# Assay in all cases: FP
# GST-tagged GluK1 ATD = biological target: T1, GST-tagged GluK1 ATD (rat)
# T1 chain: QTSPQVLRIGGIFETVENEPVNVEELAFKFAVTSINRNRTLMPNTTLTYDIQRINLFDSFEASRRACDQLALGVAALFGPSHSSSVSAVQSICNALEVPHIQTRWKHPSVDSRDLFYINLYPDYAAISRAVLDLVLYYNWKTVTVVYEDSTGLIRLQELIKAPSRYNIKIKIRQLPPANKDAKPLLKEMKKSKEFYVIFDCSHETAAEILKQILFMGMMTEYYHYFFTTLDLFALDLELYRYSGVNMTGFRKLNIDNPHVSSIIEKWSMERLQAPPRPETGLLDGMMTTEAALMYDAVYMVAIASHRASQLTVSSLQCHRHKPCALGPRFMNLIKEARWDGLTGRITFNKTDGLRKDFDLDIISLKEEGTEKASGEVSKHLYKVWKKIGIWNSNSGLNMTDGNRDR
# [1] = biological target: T2, GST-tagged GluK2 region corresponding to GluK1 N72-137 (rat, UniProt P42260 71-136)
# T2 chain: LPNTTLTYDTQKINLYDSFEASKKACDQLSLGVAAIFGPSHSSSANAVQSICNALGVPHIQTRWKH
# [2] = biological target: T3, GST-tagged GluK1 N72-137 region (rat, UniProt P22756 72-137)
# T3 chain: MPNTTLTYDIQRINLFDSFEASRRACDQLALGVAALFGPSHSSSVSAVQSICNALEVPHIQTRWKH
# GST-tagged GluK2 ATD = biological target: T4, GST-tagged GluK2 ATD (rat)
# T4 chain: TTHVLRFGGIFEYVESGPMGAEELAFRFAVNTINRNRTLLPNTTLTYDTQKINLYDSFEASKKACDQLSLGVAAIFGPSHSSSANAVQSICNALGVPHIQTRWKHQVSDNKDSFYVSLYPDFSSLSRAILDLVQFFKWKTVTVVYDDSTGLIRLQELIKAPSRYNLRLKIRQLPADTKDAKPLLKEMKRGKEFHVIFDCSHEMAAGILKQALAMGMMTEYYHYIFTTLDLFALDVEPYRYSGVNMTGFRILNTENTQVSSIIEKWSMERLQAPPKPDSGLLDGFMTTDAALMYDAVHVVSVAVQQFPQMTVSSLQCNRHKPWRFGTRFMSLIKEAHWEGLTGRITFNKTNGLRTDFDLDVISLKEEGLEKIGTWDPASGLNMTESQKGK
binder,measurement,setting,value
{FITC}-MERSTVLIQPGLWTRDTSWTLLYFLCYILP [FITC-labelled GluK1 signal peptide],Kd,GST-tagged GluK1 ATD,13.7 µM
same,Kd,[1],36.3 µM
same,Kd,[2],14.1 µM
same,Kd,GST-tagged GluK2 ATD,35.7 µM
